We go through 14 sequences from the supplement of paper PMC9170038.

This data set concerns MS2 coat protein. Put plainly: apparent KD of MS2 coat protein; designed switch direction (-1 OFF switch, 1 ON switch): 1; higher = weaker reporter binding. Conditions: Eterna round: R95. The gist of the method: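 Designed RNA switches with common flanks were transcribed on Illumina chips by stalled E. coli RNA polymerase and titrated with SNAP-549-labelled MS2 coat protein, from 0.7 or 1.5 nM doubling to 3 µM, in Tris-HCl pH 7.5 buffer with KCl, MgCl2, BSA, DTT, tRNA and Tween-20. Steps lasted 0.8–1.5 h (lowest) to 10–20 min (highest). Titrations ran without input, with 200 uM small-molecule ligand, or with an oligonucleotide input. Normalised cluster fluorescence was curve-fitted, and apparent KD is the per-design median over clusters.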

[1] abbreviates: input ligand: microRNA oligo, concentration not stated.

Take “AGUCCAGCCUGAGCUGGACAAAAGCAUGUACAUGAGGAUCACCCAUGUUCAUGUACAAGCUUUUUGCAAGUCAAAAG [Mat - hsa-mir-208a - Mod of JL - 75] (puzzle: Sensor for hsa-mir-208a)”: the “apparent KD of MS2 coat protein” value (input ligand: FMN 200 uM) is 337 nM, the “apparent KD of MS2 coat protein” value under setting [1] was 25.6 nM and the “apparent KD of MS2 coat protein” value (input ligand: none) turned out to be 710 nM.

With “AGUCCAGCCUGAGCUGGACAAAAGCAUGUACAUGAGGAUCACCCAUGUUCAUGUACAAGCUUUUUGCUCGUCUUGUA [salish99_208a_r3_102x] (puzzle: Sensor for hsa-mir-208a)”, the “apparent KD of MS2 coat protein” value was 367 nM (input ligand: FMN 200 uM), 17.2 nM under setting [1] and 483 nM (input ligand: none).

On to “AGUCCAGCCUGAGCUGGACAAAAGUAUGUACAUGAGGAUCACCCAUGUCAUGUACAAGCUUUUUGCUCGUCUUAAAA [Zipper 46 - 14] (puzzle: Sensor for hsa-mir-208a)”, for which the “apparent KD of MS2 coat protein” value by setting is: (input ligand: FMN 200 uM) 287 nM; under setting [1], 23.6 nM; (input ligand: none) 377 nM.

As for “AGUCCAGCGAAAGCUGGACAAAAGCAUGUACAUGAGGAUCACCCAUGUUCAUGUACAAGCUUUUUGUUCGUCUUAAA [JL mod - D95 - 14] (puzzle: Sensor for hsa-mir-208a)”, the “apparent KD of MS2 coat protein” value reads like this: (input ligand: FMN 200 uM) 314 nM; under setting [1], 13.4 nM; (input ligand: none) 601 nM.

In the case of “AGUCCAGCGAAAGCUGGACAAAAGCAUGUACAUGAGGAUCACCCAUGUUCAUGUACAGGCUUUUUGCUCGUCUUAAA [JL mod - D95 - 8] (puzzle: Sensor for hsa-mir-208a)”, the “apparent KD of MS2 coat protein” value by setting is: (input ligand: FMN 200 uM) 243 nM; under setting [1], 12.6 nM; (input ligand: none) 175 nM.

Take “AGUCCAGCGAAAGCUGGACAAAAGCAUGUACAUGAGGAUCACCCAUGUUCAUGUAUAAGCUUUUUGCUCGUCUUAAA [JL mod - D95 - 12] (puzzle: Sensor for hsa-mir-208a)”: the “apparent KD of MS2 coat protein” value is 18.1 nM (input ligand: FMN 200 uM), 9.2 nM under setting [1] and 15.9 nM (input ligand: none).

In the case of “AGUCCAGCGAAAGCUGGACAAAAGCAUGUACAUGAGGAUCACCCAUGUUCAUGUAUAAGCUUUUUGCUCGUUUUAAA [JL mod - D95 - 17] (puzzle: Sensor for hsa-mir-208a)”, the “apparent KD of MS2 coat protein” value is, setting by setting: (input ligand: FMN 200 uM) 16.2 nM; under setting [1], 10.2 nM; (input ligand: none) 15.9 nM.

For the sequence “AGUCCAGCGAAAGCUGGACAAAAGCAUGUACAUGAGGAUCACCCAUGUUUAUGUACAAGCUUUUUGCUCGUCUUAAA [JL mod - D95 - 11] (puzzle: Sensor for hsa-mir-208a)”, the “apparent KD of MS2 coat protein” value came to 274 nM (input ligand: FMN 200 uM), 14.2 nM under setting [1] and 300 nM (input ligand: none).

Take “AUAAAACAUGAGGAUCACCCAUGUCAACAAAGUCGAGGAUAUGGGCAAAUAAAAUAAGAAUCAGAAGGCGAAUAAU [salish99_ss1_r3_030] (puzzle: Same State 1)”: the “apparent KD of MS2 coat protein” value reads like this: (input ligand: FMN 200 uM) 265 nM; under setting [1], 330 nM; (input ligand: none) 404 nM.

Consider “AUAAAACAUGAGGAUCACCCAUGUCAACAAAGUCGAGGAUAUGGGCAAAUAAAAUUAGAACCAGAAGGCGAAUAAU [salish99_ss1_r3_020] (puzzle: Same State 1)”, for which the “apparent KD of MS2 coat protein” value was found to be 34.4 nM (input ligand: FMN 200 uM), 330 nM under setting [1] and 379 nM (input ligand: none).

For the sequence “AUAAAACAUGAGGAUCACCCAUGUCAACAAAGUCGAGGAUAUGGGCAAAUAAAUUAAGAACCAGAAGGCGAAUAAU [salish99_ss1_r3_021] (puzzle: Same State 1)”, the “apparent KD of MS2 coat protein” value turned out to be 36.9 nM (input ligand: FMN 200 uM), 236 nM under setting [1] and 313 nM (input ligand: none).

“AUAAAACAUGAGGAUCACCCAUGUCAACAAAGUCGAGGAUAUGGUCAAAUAAAAUAAGAACCAGAAGGCGAAUAAU [salish99_ss1_r3_029] (puzzle: Same State 1)”: the “apparent KD of MS2 coat protein” value by setting is: (input ligand: FMN 200 uM) 17.8 nM; under setting [1], 26.3 nM; (input ligand: none) 25.3 nM.

In the case of “AUAAAACAUGAGGAUCACCCAUGUCAAUAAAGUCGAGGAUAUGGGCAAAUAAAAUAAGAACCAGAAGGCGAAUAAU [salish99_ss1_r3_042] (puzzle: Same State 1)”, the “apparent KD of MS2 coat protein” value is, setting by setting: (input ligand: FMN 200 uM) 33.2 nM; under setting [1], 217 nM; (input ligand: none) 206 nM.

Take “AUAAGGCAAGCUUUUUUCUCGUAGUGUAAACAUGAGGAUCACCCAUGUGCCCACCCUGGAUCUUUGAAUCGCAGAAC [Dianancete] (puzzle: Sensor for hsa-mir-208a)”: the “apparent KD of MS2 coat protein” value came out at 26.7 nM (input ligand: FMN 200 uM), 16.6 nM under setting [1] and 27.3 nM (input ligand: none).
